Columns and labels:
[1] = molecular target: actin binding domain of plectin isoform 1a (P1aABD); assay: ITC
[2] = molecular target: actin binding domain of plectin isoform 1a (P1aABD); assay: SAXS

Kd [1]: 41.7 µM | dH [1]: 3.69 kcal/mol | volume fraction of the complex in solution (SAXS, OLIGOMER) [2]: 54%
B1: first two FnIII domains of integrin β4 (β4Fn12; 1126–1355) (domain or fragment)
chain: DLGAPQNPNAKAAGSRKIHFNWLPPSGKPMGYRVKYWIQGDSESEAHLLDSKVPSVELTNLYPYCDYEMKVCAYGAQGEGPYSSLVSCRTHQEVPSEPGRLAFNVVSSTVTQLSWAEPAETNGEITAYEVCYGLVNDDNRPIGPMKKVLVDNPKNRMLLIENLRESQPYRYTVKARNGAGWGPEREAIINLATQPKRPMSIPIIPDIPIVDAQSGEDYDSFLMYSDDVLR

Reference: publication PMC4353693
